Experimental findings from US20100151496A1 are described below.

The assay deals with TRAP-220-EA-Nuc fusion protein. Nature of the assay: cell-based or functional assay.

Turning to “ERRα (estrogen-related receptor α) fused to the small β-galactosidase fragment (NHR-PK fusion), expressed in CHO cells”, the EC50 of the small-molecule inverse agonist XCT790 for loss of the β-galactosidase complementation signal (ERRα fusion with coactivator-EA fusion) in CHO cells is 300 nM and the S/B (signal/background) of β-galactosidase enzyme fragment complementation in CHO cells; loss of signal with the inverse agonist XCT790 is 3 fold.
